Values of other authors, collected in publication PMC3050111.
Read-outs that look alike come from different tables or passages of the source. Values belong to the substance of their own block, whether it stands above or below them.

Assays:
[1] = target: integrin αVβ3 (Homo sapiens) (UniProt P06756)
[2] = target: integrin αVβ3 (Homo sapiens) (UniProt P06756); remark: listed apart in the source
[3] = target: integrin αVβ3 (Homo sapiens) (UniProt P06756); remark: listed apart in the source

Substance: Tat (from UniProt P04326)
Kd [1]: 32 nM

Kd [2]: 27 nM
Substance: fibrinogen (from UniProt P02671)

Kd [3]: 64 nM
Substance: vitronectin (from UniProt P04004)
